Paper PMC10469194 (Scientific Reports, 2023)

B1: REGN10987-based FabH3 (GS-G4 linker) (other)
VH: QVQLVESGGGVVQPGRSLRLSCAASGFTFSNYAMYWVRQAPGKGLEWVAVISYDGSNKYYADSVKGRFTISRDNSKNTLYLQMNSLRTEDTAVYYCASGSDYGDYLLVYWGQGTLVTVSS
VL: QSALTQPASVSGSPGQSITISCTGTSSDVGGYNYVSWYQQHPGKAPKLMIYDVSKRPSGVSNRFSGSKSGNTASLTISGLQSEDEADYYCNSLTSISTWVFGGGTKLTVL
notes: VH domain of REGN10987, as the VH of the heavy chain of m1; flexible glycine-serine linker, printed only as the formula 'GS-G4' (G: glycine, S: serine); spelled out from that formula; IgG1 heavy chain constant 3 (CH3) domain; VL domain of REGN10987, as the VL of the light chain of m1; E356 is 239 and D399 is 282 in P01857; also called REGN10987 FabH3; FabH3 format; copies: 1 + 1
B2: REGN10987 wild type Fab (Fab, V domains shown)
VH: B1 VH
VL: B1 VL
notes: Fab heavy chain (VH-CH1) of REGN10987; Fab light chain (VL-CL, lambda) of REGN10987; Heavy and light chain are covalently linked (one mass of 47,892 Da by ESI-MS); also called REGN10987 Fab; REGN10987-Fab

Target: T1, mutated-truncated DsbC (mtDsbC) tagged SARS-CoV-2 Receptor Binding Domain (RBD) (Severe acute respiratory syndrome …, UniProt P0DTC2, biotin (biotinylated, site not stated))
T1 construct: also called mtDsbC-SARS-CoV-2 wild type; SARS-CoV-2 RBD
Assay: BLI; biotinylated antigen (5 µg/mL) immobilised on Streptavidin biosensors; five concentrations of Fab or FabH3 (3-243 nM); Octet RED384, 30 °C, 1000 rpm, 1X PBS Kinetics Buffer; global fit, 1:1 interaction model
Conditions: both partners purified

Binder | Kd [nM]
B1 | 20 ± 2.6
B2 | 43 ± 4.4
